Common to all, as to assay: TAP purification of tagged bait from yeast, trypsin digestion, mass spectrometric identification of co-purified proteins
Test [1] has as its target Gut2 (Saccharomyces cerevisiae) (UniProt P32191).
Test [2] deals with Mpc3 (S. cerevisiae, encoded by YGR243W) (S. cerevisiae) (UniProt P53311).
Test [3] has as its target Fmp24 (Saccharomyces cerevisiae) (UniProt Q04472).
Test [4] has as its target Mpm1 (Saccharomyces cerevisiae) (UniProt P40364).
Test [5] has as its target Cor1 (Saccharomyces cerevisiae) (UniProt P07256).
For test [6], the target named is Qcr2 (Saccharomyces cerevisiae) (UniProt P07257).
In test [7] the target is Nde1 (Saccharomyces cerevisiae) (UniProt P40215).
Test [8] deals with Md12 (Saccharomyces cerevisiae) (UniProt P33311).
Md12 (Saccharomyces cerevisiae), sequence (P33311 91-773 limits assumed): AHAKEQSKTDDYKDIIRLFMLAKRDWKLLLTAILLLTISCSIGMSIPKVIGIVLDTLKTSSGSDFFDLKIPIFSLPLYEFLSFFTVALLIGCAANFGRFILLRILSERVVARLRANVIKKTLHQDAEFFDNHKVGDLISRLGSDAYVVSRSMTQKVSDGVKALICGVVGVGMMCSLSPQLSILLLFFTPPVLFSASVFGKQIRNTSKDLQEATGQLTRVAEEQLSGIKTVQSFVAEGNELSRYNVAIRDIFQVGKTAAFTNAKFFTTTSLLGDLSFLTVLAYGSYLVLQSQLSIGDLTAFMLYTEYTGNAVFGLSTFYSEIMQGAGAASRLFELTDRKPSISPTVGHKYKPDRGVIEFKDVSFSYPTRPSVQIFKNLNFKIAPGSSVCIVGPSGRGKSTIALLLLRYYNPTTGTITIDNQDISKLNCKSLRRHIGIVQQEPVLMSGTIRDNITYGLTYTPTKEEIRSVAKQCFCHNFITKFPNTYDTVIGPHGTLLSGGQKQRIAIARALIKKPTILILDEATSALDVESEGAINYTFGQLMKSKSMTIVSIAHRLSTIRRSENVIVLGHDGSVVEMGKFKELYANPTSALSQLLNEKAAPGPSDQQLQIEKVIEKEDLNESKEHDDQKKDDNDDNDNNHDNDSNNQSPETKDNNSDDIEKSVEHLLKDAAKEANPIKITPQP

Gut2 (Saccharomyces cerevisiae), sequence (P32191 whole entry): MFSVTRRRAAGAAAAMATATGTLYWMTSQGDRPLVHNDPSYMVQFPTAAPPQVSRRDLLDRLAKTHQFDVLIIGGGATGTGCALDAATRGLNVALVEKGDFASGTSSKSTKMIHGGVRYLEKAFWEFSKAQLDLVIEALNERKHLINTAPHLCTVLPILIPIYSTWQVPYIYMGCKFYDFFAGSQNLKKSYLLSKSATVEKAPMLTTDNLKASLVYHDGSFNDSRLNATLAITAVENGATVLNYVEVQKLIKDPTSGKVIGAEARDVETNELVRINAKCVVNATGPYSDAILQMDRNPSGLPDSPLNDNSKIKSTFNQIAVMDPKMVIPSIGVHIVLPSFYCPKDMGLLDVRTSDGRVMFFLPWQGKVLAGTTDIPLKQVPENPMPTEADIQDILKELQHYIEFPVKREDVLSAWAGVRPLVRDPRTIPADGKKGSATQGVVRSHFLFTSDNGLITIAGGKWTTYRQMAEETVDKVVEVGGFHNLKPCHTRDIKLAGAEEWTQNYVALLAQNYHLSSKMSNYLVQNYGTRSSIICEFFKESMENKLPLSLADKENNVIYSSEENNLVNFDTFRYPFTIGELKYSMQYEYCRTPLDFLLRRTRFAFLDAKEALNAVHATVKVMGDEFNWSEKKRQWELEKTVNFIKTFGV
Qcr2 (Saccharomyces cerevisiae), sequence (P07257 17-368 limits assumed): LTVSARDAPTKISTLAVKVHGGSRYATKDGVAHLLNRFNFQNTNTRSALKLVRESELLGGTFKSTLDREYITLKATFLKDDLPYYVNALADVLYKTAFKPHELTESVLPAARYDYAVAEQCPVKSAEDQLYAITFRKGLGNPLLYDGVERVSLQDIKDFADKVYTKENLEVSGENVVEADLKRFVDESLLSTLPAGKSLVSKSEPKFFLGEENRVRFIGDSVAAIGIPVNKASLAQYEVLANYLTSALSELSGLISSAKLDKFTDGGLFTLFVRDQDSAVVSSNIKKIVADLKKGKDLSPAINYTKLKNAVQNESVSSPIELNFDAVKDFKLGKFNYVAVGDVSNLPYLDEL
Cor1 (Saccharomyces cerevisiae), sequence (P07256 27-457 limits assumed): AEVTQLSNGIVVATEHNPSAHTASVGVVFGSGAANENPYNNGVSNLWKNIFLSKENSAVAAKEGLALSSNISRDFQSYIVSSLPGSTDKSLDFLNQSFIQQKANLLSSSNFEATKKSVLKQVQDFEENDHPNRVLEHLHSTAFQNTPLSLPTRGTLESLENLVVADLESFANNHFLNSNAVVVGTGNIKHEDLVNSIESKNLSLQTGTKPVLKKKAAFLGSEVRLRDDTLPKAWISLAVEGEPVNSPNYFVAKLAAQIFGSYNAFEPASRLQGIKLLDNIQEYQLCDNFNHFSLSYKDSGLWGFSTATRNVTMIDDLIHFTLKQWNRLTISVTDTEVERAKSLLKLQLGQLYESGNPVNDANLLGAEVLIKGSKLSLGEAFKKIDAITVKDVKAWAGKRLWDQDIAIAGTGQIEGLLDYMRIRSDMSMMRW
Fmp24 (Saccharomyces cerevisiae), sequence (Q04472 whole entry): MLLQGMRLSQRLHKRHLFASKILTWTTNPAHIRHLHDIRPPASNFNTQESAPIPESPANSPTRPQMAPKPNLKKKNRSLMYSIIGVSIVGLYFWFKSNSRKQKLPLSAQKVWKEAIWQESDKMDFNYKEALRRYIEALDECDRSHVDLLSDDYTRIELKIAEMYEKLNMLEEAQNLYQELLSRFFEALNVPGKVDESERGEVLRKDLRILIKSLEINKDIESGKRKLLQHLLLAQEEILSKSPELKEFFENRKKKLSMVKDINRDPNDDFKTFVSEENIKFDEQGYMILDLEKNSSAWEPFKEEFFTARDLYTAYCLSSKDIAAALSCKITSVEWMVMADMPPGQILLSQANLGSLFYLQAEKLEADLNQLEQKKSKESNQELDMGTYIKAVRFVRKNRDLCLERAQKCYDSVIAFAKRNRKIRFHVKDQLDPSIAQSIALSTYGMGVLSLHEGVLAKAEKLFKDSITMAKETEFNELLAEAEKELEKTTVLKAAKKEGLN
Mpm1 (Saccharomyces cerevisiae), sequence (P40364 whole entry): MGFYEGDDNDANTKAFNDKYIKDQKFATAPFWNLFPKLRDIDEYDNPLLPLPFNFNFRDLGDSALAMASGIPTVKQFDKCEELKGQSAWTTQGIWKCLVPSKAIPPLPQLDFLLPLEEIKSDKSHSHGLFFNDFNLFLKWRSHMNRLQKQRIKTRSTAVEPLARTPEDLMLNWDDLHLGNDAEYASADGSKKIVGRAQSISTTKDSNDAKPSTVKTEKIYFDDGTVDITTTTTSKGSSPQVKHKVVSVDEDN
Nde1 (Saccharomyces cerevisiae), sequence (P40215 42-560 limits assumed): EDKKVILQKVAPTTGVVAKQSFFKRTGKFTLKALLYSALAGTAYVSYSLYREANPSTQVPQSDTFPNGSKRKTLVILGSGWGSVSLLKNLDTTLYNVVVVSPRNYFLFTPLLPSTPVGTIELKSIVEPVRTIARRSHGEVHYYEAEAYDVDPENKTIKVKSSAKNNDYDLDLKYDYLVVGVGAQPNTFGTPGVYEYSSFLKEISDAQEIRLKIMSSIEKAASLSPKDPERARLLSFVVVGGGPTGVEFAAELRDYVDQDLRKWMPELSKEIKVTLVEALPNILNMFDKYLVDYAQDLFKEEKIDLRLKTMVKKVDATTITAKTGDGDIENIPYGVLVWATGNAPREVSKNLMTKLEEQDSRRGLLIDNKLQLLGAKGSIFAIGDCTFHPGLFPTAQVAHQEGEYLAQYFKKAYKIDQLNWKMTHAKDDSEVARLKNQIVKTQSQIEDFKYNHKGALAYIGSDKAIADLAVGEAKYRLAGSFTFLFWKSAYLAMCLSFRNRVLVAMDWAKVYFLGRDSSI

As for “Mpc1-His6/HA2 (from UniProt P53157 1-130)”, the PSMs in test [1] was 7 PSMs; in test [2] it was 5 PSMs; in test [3], 4 PSMs; in test [4], 7 PSMs.
For the substance “Mpc2, tagged variant used for TAP purification (from UniProt P38857 1-129)”, the PSMs stood at 4 PSMs in test [1]; 5 PSMs in test [5]; 3 PSMs in test [6]; 6 PSMs in test [7]; 5 PSMs in test [2]; 28 PSMs in test [8].

The values above are taken from patent US20150099790A1.
